Source: PMC9146559, “Recombinant Integrin β1 Signal Peptide Blocks Gliosis Induced by Aβ Oligomers” (International Journal of Molecular Sciences, 2022)

Target: T1, amyloid β protein fragment 1–42 (synthetic Aβ peptide, oligomer preparation) (UniProt P05067 672-713)
T1 construct: amyloid beta 1-42, the cut product of the amyloid precursor protein; One preparation that holds monomeric and oligomeric forms, which are seen as separate bands on non-reducing SDS-PAGE; also called Aβ1–42; Aβ oligomers; source: synthetic peptide; oligomers prepared from hexafluoroisopropanol film, DMSO, Hams F-12, 4 °C for 24 h, supernatant after 14,000 x g
Experiment: pull-down; glutathione beads coated with 500 ng GST0 or GST fusion protein, incubated with 100 pM Aβ oligomers in 50 mM Tris-HCl pH7.5, 5 mM MgCl2, 20 mM KCl, 500 µg/mL BSA for 1 h at RT; washed, eluted under non-reducing conditions, SDS-PAGE and Western blot with 6E10
Conditions: both partners purified

binding result: binds
B1: GST-Rs recombinant fusion protein (integrin β1 signal peptide, amino acids 1–20) (domain or fragment, UniProt P05556 1-20, looked up)
chain: MNLQPIFWIGLISSVCCVFA
notes: signal peptide in the construct; integrin β1 (ITGβ1) amino acids 1-20, PCR from pCMV6-XL5-ITGB1 (Origene); The fragment was cloned through EcoRI sites, so linker residues from the vector are likely; The printed forward primer (ATG AAT TTA CAA CC) encodes M-N-L-Q-P, which fits the human cDNA; also called Rs peptide; recombinant integrin β1 signal peptide
